Article PMC4741518, “Adaptive Remodeling of the Bacterial Proteome by Specific Ribosomal Modification Regulates Pseudomonas Infection and Niche Colonisation” (PLoS Genetics, 2016)
One block for each compound: values may come before it.

Tests used:
[1] = molecular target: Ribosomal protein S6 modification protein RimK (P. fluorescens SBW25)
RimA = molecular target: T1, RimA (Pseudomonas fluorescens, UniProt A0ACD4XU64); test: phosphodiesterase assay, TLC of […]-cdG; format: biochemical; settings: labelled compound (100 μM cdG with 0.07 μM 32P-cdG); 10 mM MgCl2, pH 8.0, 30 °C; product pGpG
T1 construct: gene U0037_01330; full-length, His6-tagged (pETM11-rimA), E. coli BL21(DE3) pLysS, Ni-NTA purified
T1 sequence (A0ACD4XU64 entry or part of it): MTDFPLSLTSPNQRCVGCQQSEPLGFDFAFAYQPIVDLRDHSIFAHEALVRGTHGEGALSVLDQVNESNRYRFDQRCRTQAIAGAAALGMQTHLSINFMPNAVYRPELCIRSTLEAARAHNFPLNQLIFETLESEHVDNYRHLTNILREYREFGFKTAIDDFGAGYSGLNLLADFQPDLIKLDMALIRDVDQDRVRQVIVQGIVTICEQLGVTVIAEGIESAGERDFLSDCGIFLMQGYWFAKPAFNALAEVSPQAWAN

Chain of Ribosomal protein S6 modification protein RimK (P. fluorescens SBW25) (C3KE61 whole entry): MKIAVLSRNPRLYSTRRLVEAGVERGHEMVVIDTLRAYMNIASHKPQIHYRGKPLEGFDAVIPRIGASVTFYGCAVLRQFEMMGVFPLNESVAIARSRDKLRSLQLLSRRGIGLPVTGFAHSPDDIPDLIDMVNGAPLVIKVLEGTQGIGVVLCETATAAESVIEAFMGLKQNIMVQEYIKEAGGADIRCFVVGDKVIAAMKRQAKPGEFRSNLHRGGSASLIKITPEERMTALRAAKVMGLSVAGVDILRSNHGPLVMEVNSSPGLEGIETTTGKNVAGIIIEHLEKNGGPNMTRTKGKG

- RimKPf ATPase activity (linked PK/LDH assay, with glutamate): Vmax on addition of purified RimB; 113.6 without RimB [1]: 691 nmol/min/mg
Compound: Putative uncharacterized protein RimB (natural protein)

Compound: Nc1nc2c(ncn2[C@@H]2O[C@@H]3COP(=O)(O)O[C@H]4[C@@H](O)[C@H](n5cnc6c(=O)[nH]c(N)nc65)O[C@@H]4COP(=O)(O)O[C@H]3[C@H]2O)c(=O)[nH]1 [cdG]
- phosphodiesterase assay, TLC of 32P-cdG (RimA): RimA PDE activity was subsequently confirmed (Fig 4C)

- RimKPf ATPase activity (linked PK/LDH assay, with glutamate): Vmax on addition of purified RimA; 234.9 without RimA [1]: 364 nmol/min/mg
Compound: Conserved EAL domain protein RimA (enzyme)
